Molecular target: T1, PD-1 on SEB-stimulated human T cells (human, UniProt Q15116 25-288)
T1 construct: whole, on cells; also called SEB-stimulated T cells
Assay: flow cytometry on SEB-stimulated human PBMCs, APC anti-human kappa MFI on CD3-FITC+ cells
Procedure: Binding of anti-PD-1 clone 1C11 to T cells was measured in an SEB-stimulated PBMC assay. Staphylococcal Enterotoxin B (SEB) is a superantigen that causes T cell activation and proliferation in a manner similar to that achieved by activation via the T cell receptor (TCR), including expression of checkpoint receptors such as PD-1. Human PBMCs were stimulated with […] for 3 days. Following stimulation, PBMCs were incubated with the indicated test articles at indicated concentrations at 4° C. for 30 min. PBMCs were stained with anti-CD3-FITC (UCHT1) and APC labeled antibody for human immunoglobulin κ light chain. The binding of the test articles to T cells as indicated by APC MFI on FITC+ cells is depicted in FIG. 17.

T1 sequence (Q15116 25-288): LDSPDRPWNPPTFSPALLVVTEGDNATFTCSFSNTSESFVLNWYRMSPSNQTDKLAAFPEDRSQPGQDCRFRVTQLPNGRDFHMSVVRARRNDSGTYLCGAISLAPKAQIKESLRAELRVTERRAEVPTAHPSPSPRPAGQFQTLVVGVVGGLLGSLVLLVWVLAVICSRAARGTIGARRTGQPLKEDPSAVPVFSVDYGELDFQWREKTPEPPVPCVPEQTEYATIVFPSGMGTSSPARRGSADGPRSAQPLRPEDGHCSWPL

B1: XENP21575, chimeric anti-PD-1 antibody based on the variable regions of hybridoma clone 1C11 and human IgG1 with E233P/L234V/L235A/G236del/S267K substitutions … (antibody, V domains shown)
VH: QIQLVQSGPELKKPGETVKISCRASGYTFTHYGMNWVKQAPGKGLKWMGWINTYTGEPTYADDFKGRFAFSLETSASTAYLQINNLKNEDTATYFCARDYYGSSPYWGQGTTLTVSS
VL: DVLMTQTPLSLPVSLGDQASISCRSSQSIVHSNGNTYLEWYLQKPGQSPKLLIYKVSNRFSGVPDRFSGSGSGTDFTLKISRVEAEDLGVYYCFQGSHVPNTFGGGTKLEIKR
notes: Mouse hybridoma variable regions on human IgG1 with FcγR ablation substitutions (EU numbering); also called anti-PD-1 clone 1C11
B1: binds.

Source: patent publication US20230220081A1 (Xencor, published 2023)
